These results are taken from the RNAGym collection of RNA variant scans (doi:10.1073/pnas.2313332121).

First the molecules themselves.
B1: TPR t1 (parent)
chain: GACCAAUCUGCCCUCAGAGCUCGAGAACAUCUUCGGAUGCAGAGGAGGCAGGCUUCGGUGGCGCGAUAGCGCCAACGUCCUCAACCUCCAAUGCAUCCCACCACAUGAUGAUGCCUGAAGAGCCUUGGUUUUUUG

Variants of B1 are the subject of the data set. In words: polymerase ribozyme fitness, log enrichment relative to wild type (log ratio); higher = more active; in vitro selection for triplet polymerase activity. The procedure, abridged:
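The heterodimeric triplet polymerase ribozyme's subunits were each mutagenized into PCR-built libraries and transcribed. Every library was selected once, in triplicate, by annealing with a biotinylated primer, the partner subunit and triplets, incubating frozen at −7 °C, gel-excising extended constructs, capturing on streptavidin beads and running RT-PCR. Input and output libraries were Illumina-sequenced, with genotypes kept only at ≥10 input reads and ≥1 read per output. Fitness, from inverse-variance-weighted replicate averages, is the base-2 logarithm of genotype enrichment over wild-type enrichment.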
On to C12U G47U C86G G122A, for which the “polymerase ribozyme fitness (log ratio)” value was determined as 0.433. The result for G61U G120A reads 0.595. As for C11G C15A G61U U125G, the figure is -0.123. The result for C40G G60U C104A reads -1.87; that for C64U A121C, 1.93; that for C13U A50G C85G C123G, -0.185. On to U9G A74U, for which the “polymerase ribozyme fitness (log ratio)” value stood at 0.26. For C13U G42U G61A A90U A95U, the “polymerase ribozyme fitness (log ratio)” value is -1.48. As for A16U G117U, the figure is -2.04. With C62U A84C G117C C124A, the “polymerase ribozyme fitness (log ratio)” value was -2.09. Regarding A111G G120A G122A, the “polymerase ribozyme fitness (log ratio)” value is -2.07. For the variant C34G G63C, the “polymerase ribozyme fitness (log ratio)” value was -6.66. With C4U G19A G71A G120C, the “polymerase ribozyme fitness (log ratio)” value is -3.53. As for A16C A37C U112C, the figure is -2.37. The result for C56G U116C reads -0.924. Turning to C22A A29G C40G G61U C72A A83U U131A, the “polymerase ribozyme fitness (log ratio)” value was -5.02. As to A37U A43U C73A U96C A111C U112A, the “polymerase ribozyme fitness (log ratio)” value was -4.83.

With U9G U14C G51A C56U C80A, the “polymerase ribozyme fitness (log ratio)” value is -3.92. The result for G10A G110A reads -1.12; that for A41U C53A C114G, -1.85; that for C34A C123G, -0.401. As to C8U A46U C70U G122U, the “polymerase ribozyme fitness (log ratio)” value is -0.612. The result for C73G U92A reads -5.66; that for G25U C72U, -6.27. The result for A27G A50C A111U reads -3.29. The result for C70U C82A reads -1.09; that for C8A A24G U32A C73G A111G, -4.24.

Turning to G58U C73A, the “polymerase ribozyme fitness (log ratio)” value is -0.295. For C34A C89A, the “polymerase ribozyme fitness (log ratio)” value was -5.68. The result for C76A C99U G120U reads -5.6.

Regarding C8G A37U G44A G60C C115A, the “polymerase ribozyme fitness (log ratio)” value is -0.0408.

In the case of C76G C82U, the “polymerase ribozyme fitness (log ratio)” value was -0.815. As for G61U A111G, the “polymerase ribozyme fitness (log ratio)” value is 0.628. The result for A108C reads -3.71.

For U9G U109A, the “polymerase ribozyme fitness (log ratio)” value was -3.09. For C13G C72A C82A U96G A100U C115A, the “polymerase ribozyme fitness (log ratio)” value was -3.76. In the case of G45U C53U A105U, the “polymerase ribozyme fitness (log ratio)” value is -3.69.

With A43U G48A C56U, the “polymerase ribozyme fitness (log ratio)” value is -1.58. The result for C11U C20A A29U G117U reads -4.71; that for C11G G77A, -0.375; that for C4A C86G, -2.58. As for A5U C12U, the figure is 0.00871. Consider A18G, for which the “polymerase ribozyme fitness (log ratio)” value was -1.83. The result for G71A C79U C98U reads -1.99; that for G10C G71U C114A A118C, -6.14; that for A6C G57C C72U, -0.529. For the variant G69U C115A, the “polymerase ribozyme fitness (log ratio)” value came to 1. The result for C15U C34G C49G G69U G120A reads -3.56; that for C15A G71U, -2.58; that for U7C A27G U92A, -3.82. The result for A46G G117C reads -3.96. For the variant C4U U9C A41U, the “polymerase ribozyme fitness (log ratio)” value is -0.927. In the case of G47U U87G U129A, the “polymerase ribozyme fitness (log ratio)” value was -4.44.

C56G G93A A95G G113A G120C: the “polymerase ribozyme fitness (log ratio)” value is -3.38.

With U7G A50G U54C G128U, the “polymerase ribozyme fitness (log ratio)” value is -1.5. The result for A26U G39U G60C U78C G117C reads -6.27; that for C28A G51U G60C C80U G110U G117A, -2.3; that for A24G A46U C72G G93C G120U C124U, -5.77. Take G36U U59C C86U: the “polymerase ribozyme fitness (log ratio)” value is -1.77. Consider C28U C62U, for which the “polymerase ribozyme fitness (log ratio)” value was -2.6. The result for C70U G71A U130C reads -1.13; that for U7G C13U A26G G48A C49U G52A A75C, -3.14; that for G60U C62G U92C, -2.78. As for A41U A111G, the figure is -1.26. The result for A16U C79U A91G C123G U131G reads -1.49; that for A29G G42C, -2.66; that for C79G G120A, -0.791. Take C22A G48U C56U: the “polymerase ribozyme fitness (log ratio)” value is -4.88. As for G51U G77C, the figure is -1.93; as for A18U G42U G63C A66G C123U, -4.29. As for C4A C53G G77A C80A, the “polymerase ribozyme fitness (log ratio)” value was -5.1.

With G60U C102U U116A, the “polymerase ribozyme fitness (log ratio)” value is -4.78. The result for C40A U109C C115U reads -6.69; that for C8U G69U G93C, 0.148. Turning to A50G G110U, the “polymerase ribozyme fitness (log ratio)” value was -0.639.

In the case of U7G A74C G93U G113A, the “polymerase ribozyme fitness (log ratio)” value is -1.35. On to A6U A29G G44A C82A, for which the “polymerase ribozyme fitness (log ratio)” value was -2.51.

Consider C15U C76A, for which the “polymerase ribozyme fitness (log ratio)” value is -1.94.

Regarding U96A U131C, the “polymerase ribozyme fitness (log ratio)” value was -1.19. The result for A6C G52U C70G A74U G120C reads -5.83.

U78G C94G: the “polymerase ribozyme fitness (log ratio)” value was -0.85. As for A27U C70U C73G A84G C89G C114G, the figure is -6.4; as for A27G A46U G77U U78A, -3.31.
